Data reported in patent US20090280056A1 (Genentech, published 2009).
Residue numbers refer to the chain shown, from its start. Names may count otherwise.

Legend:
human STEAP-1 [1] = molecular target: T1, human STEAP-1 (human, UniProt Q9UHE8 1-339); assay: Scatchard analysis; the sentence names no reference (the preceding sentences compare with chimeric 120 IgG)
T1 construct: also called Six Transmembrane Epithelial Antigen of the Prostate
Source text: (§1) IgG Production and Affinity Determination -IgG was purified with Protein G affinity chromatography.
Although the 120-graft IgG bound specifically to the STEAP-1 expressing cells, the FACS signal observed for the 120-graft IgG was smaller than that observed for the chimeric 120 IgG indicating a loss in binding affinity. Phage displaying the 120-graft Fab also generated a FACS signal that was only observed on STEAP-1 expressing cells. This shift was less than that observed for the chimeric 120 IgG.

human STEAP-1 [2] = molecular target: T1, human STEAP-1; assay: Scatchard analysis on 293 STEAP-1 NT LB50 cells
human STEAP-1 [3] = molecular target: T1, human STEAP-1; assay: Scatchard analysis on LNCaP-BR cells (endogenous STEAP-1), average
Source text: (§2) JgG was purified with Protein G affinity chromatography.

human STEAP-1 [4] = molecular target: T1, human STEAP-1; assay: Scatchard analysis on LNCaP.BR cells (endogenous STEAP-1), Assay 733; displacement plot 25E and Scatchard plot 25F
Source text: as §2

human STEAP-1 [5] = molecular target: T1, human STEAP-1; assay: Scatchard analysis on LNCaP.BR cells (endogenous STEAP-1), Assay 734; displacement plot 25G and Scatchard plot 25H
Source text: as §2

human STEAP-1 [6] = molecular target: T1, human STEAP-1; assay: Scatchard analysis on 293.LB50 cells (exogenous STEAP-1), Assay 735; displacement plot 26E and Scatchard plot 26F
Source text: as §2

human STEAP-1 [7] = molecular target: T1, human STEAP-1; assay: Scatchard analysis on 293.LB50 cells (exogenous STEAP-1), Assay 736; displacement plot 26G and Scatchard plot 26H
Source text: as §2

human STEAP-1 [8] = molecular target: T1, human STEAP-1; assay: Scatchard analysis on 293-LB50 cells (exogenous STEAP-1), average
Source text: as §2

human STEAP-1 [9] = molecular target: T1, human STEAP-1; assay: Scatchard analysis on 293.LB50 cells (exogenous STEAP-1)
Source text: as §1
When expressed as an IgG, 120.v24 produced a similar FACS shift to the chimeric 120 antibody at all concentrations tested.

mouse STEAP-1 [10] = molecular target: T2, mouse STEAP-1 (mouse, UniProt Q9CWR7 1-339); assay: FACS on cells expressing mouse STEAP-1 (panel title MOUSE, cell line not named), PE detection; key in Figure 7A: hu 24-67
T2 construct: The cells carrying mouse STEAP-1 are not described in the text; also called STEAP-1 from mouse

[11] = molecular target: T3, cynomolgus monkey STEAP-1 (cynomolgus monkey, UniProt Q9UHE8 1-339 (human entry)); assay: FACS on cells expressing cynomolgus STEAP-1 (panel title CYNO, cell line not named), PE detection
T3 construct: The cells carrying cyno STEAP-1 are not described; also called cyno STEAP-1

human STEAP-1 [12] = molecular target: T1, human STEAP-1; assay: Scatchard analysis on 293-LB50 and LNCaP.BR cells
Source text: as §2

human STEAP-1 [13] = molecular target: T1, human STEAP-1; assay: Scatchard analysis on 293.LB50 cells (exogenous STEAP-1), Assay 738; displacement plot 26C and Scatchard plot 26D
Source text: as §2

human STEAP-1 [14] = molecular target: T1, human STEAP-1; assay: Scatchard analysis on LNCaP.BR cells (endogenous STEAP-1), Assay 740; displacement plot 25C and Scatchard plot 25D
Source text: as §2

human STEAP-1 [15] = molecular target: T1, human STEAP-1; assay: Scatchard analysis on 293 cells transiently expressing human Steap1
Source text: as §2

human STEAP-1 [16] = molecular target: T1, human STEAP-1; assay: Scatchard analysis on 293.LB50 cells (exogenous STEAP-1), Assay 737; displacement plot 26A and Scatchard plot 26B
Source text: as §2

[17] = molecular target: T3, cynomolgus monkey STEAP-1; assay: Scatchard analysis on 293 cells transiently expressing cyno Steap1; side note: Same Affinity for human & cyno
human STEAP-1 [18] = molecular target: T1, human STEAP-1; assay: Scatchard analysis on LNCaP.BR cells (endogenous STEAP-1), Assay 739; displacement plot 25A and Scatchard plot 25B
Source text: as §2

human STEAP-1 [19] = molecular target: T1, human STEAP-1; assay: Scatchard analysis on LNCaP-BR cells (endogenous STEAP-1)
human STEAP-1 [20] = molecular target: T1, human STEAP-1; assay: Scatchard analysis on PC3-PS5.4 cells (exogenous STEAP-1)
mouse STEAP-1 [21] = molecular target: T2, mouse STEAP-1; assay: FACS on cells expressing mouse STEAP-1 (panel title MOUSE, cell line not named), PE detection; key in Figure 7A: 120
mouse STEAP-1 [22] = molecular target: T2, mouse STEAP-1; assay: FACS on cells expressing mouse STEAP-1 (panel title MOUSE, cell line not named), PE detection; key in Figure 7A: 120 chi

T1 sequence (Q9UHE8 other isoform, or with tags, fused parts or gaps): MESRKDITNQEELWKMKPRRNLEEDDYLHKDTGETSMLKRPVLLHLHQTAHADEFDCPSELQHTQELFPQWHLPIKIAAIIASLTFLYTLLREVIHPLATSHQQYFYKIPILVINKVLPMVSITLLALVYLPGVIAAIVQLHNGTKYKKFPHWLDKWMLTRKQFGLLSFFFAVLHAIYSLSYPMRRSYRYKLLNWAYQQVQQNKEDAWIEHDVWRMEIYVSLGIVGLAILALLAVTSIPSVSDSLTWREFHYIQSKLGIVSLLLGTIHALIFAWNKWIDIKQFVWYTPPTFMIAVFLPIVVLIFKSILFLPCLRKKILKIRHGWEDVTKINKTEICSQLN
T3 sequence (Q9UHE8 other isoform, or with tags, fused parts or gaps): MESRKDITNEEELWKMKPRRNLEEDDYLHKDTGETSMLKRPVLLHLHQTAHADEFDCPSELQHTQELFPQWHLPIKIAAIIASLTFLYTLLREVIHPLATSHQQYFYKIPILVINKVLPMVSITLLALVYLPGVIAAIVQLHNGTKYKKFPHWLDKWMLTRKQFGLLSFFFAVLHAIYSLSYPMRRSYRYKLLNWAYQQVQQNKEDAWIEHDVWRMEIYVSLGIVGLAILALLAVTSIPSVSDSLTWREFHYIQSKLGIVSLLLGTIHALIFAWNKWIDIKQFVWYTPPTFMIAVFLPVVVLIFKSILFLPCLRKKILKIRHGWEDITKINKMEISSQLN
T2 sequence (Q9CWR7 other isoform, or with tags, fused parts or gaps): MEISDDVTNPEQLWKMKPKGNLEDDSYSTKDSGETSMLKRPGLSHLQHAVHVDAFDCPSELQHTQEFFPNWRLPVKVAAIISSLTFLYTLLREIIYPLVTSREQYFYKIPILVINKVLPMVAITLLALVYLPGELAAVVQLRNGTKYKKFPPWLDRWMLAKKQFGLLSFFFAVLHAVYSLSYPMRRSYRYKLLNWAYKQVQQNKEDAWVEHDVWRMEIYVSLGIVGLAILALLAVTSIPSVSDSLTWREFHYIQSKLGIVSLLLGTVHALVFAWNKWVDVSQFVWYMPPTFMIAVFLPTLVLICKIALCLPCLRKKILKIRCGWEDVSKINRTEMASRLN

B1: 120 graft IgG (antibody, V domains shown)
VH: EVQLVESGGGLVQPGGSLRLSCAASGYSITSDYAWNWVRQAPGKGLEWVGYISNSGSTSYNPSLKSRFTISRDNSKNTLYLQMNSLRAEDTAVYYCARERNYDYDDYYYAMDYWGQGTLVTVSS
VL: DIQMTQSPSSLSASVGDRVTITCKSSQSLLYRSNQKNYLAWYQQKPGKAPKLLIYWASTRESGVPSRFSGSGSGTDFTLTISSLQPEDFATYYCQQYYNYPRTFGQGTKVEIKR
notes: Direct CDR graft of murine 120 onto the human kappa I / VH subgroup III consensus, expressed as IgG; also called graft 120
- fold loss in binding affinity (human STEAP-1 [1]): ~50 fold
- Kd (human STEAP-1 [2]): 260 nM

B2: anti-STEAP-1 antibody SGIV (antibody, name in Kabat numbering, V domains shown)
VH: B1 VH with A24V
VL: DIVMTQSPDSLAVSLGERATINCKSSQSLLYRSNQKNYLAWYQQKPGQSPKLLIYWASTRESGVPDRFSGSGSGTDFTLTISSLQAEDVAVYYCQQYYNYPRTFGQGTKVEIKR
notes: Described as a revised light chain variant of the 120.v24 antibody, expressed as IgG; also called Simmons IV; SGIV variant
- Kd (human STEAP-1 [3]): 2.1 nM
- Kd (human STEAP-1 [4]): 2.3 nM
- Kd (human STEAP-1 [5]): 1.9 nM
- Kd (human STEAP-1 [6]): 2.7 nM
- Kd (human STEAP-1 [7]): 2.8 nM
- Kd (human STEAP-1 [8]): 2.8 nM

B3: humanized anti-STEAP-1 120v.24 (IgG) (antibody, name in Kabat numbering, V domains shown)
VH: B1 VH with A24V
VL: B1 VL
notes: also called humanized 120.v24; humanized version 24
- Kd (human STEAP-1 [9]): 2.2 nM
- sites per cell (human STEAP-1 [9]): 264000 sites per cell
- binding result (mouse STEAP-1 [10]): no binding
- binding result [11]: binds
- fold binding affinity relative to the SGIV variant (human STEAP-1 [12]): ~1.5 fold
- fold improvement in Kd over the 120 chimera and the original murine M2-120.545 (human STEAP-1 [2]): 2 fold

B4: Original Thio 120V24 (antibody, V domains shown)
VH: B1 VH with A24V
VL: DIQMTQSPSSLSASVGDRVTITCKSSQSLLYRSNQKNYLAWYQQKPGKAPKLLIYWASTRESGVPSRFSGSGSGTDFTLTISSLQPEDFATYYCQQYYNYPRTFGQGTKVEIK
modifications: One engineered free cysteine per chain pair, taken to lie in a constant region and so not in these letters. paragraph 175 calls the antibody a thio-LC variant (V205C Kabat). The site for lot PUR 12813 is not stated at the results.
notes: also called orig thio (PUR 12813); Thio Mab
- Kd (human STEAP-1 [13]): 2 nM
- Kd (human STEAP-1 [3]): 1.4 nM
- Kd (human STEAP-1 [14]): 1.7 nM
- Kd (human STEAP-1 [15]): 1.4 nM
- Kd (human STEAP-1 [16]): 1.7 nM
- Kd [17]: 1.1 nM
- Kd (human STEAP-1 [18]): 1.1 nM
- Kd (human STEAP-1 [8]): 1.9 nM

B5: 120v.78 (antibody, name in Kabat numbering, V domains shown)
VH: B1 VH with L79F
VL: B1 VL
- Kd (human STEAP-1 [2]): 36 nM

B6: murine anti-STEAP-1 MAb 120.545 (antibody, V domains shown)
VH: DVQVQESGPGLVKPSQSLSLTCTVTGYSITSDYAWNWIRQFPGNKLEWMGYISNSGSTSYNPSLKSRISITRDTSKNQFFLQLISVTTEDTATYYCARERNYDYDDYYYAMDYWGQGTTLTVSA
VL: DIVMSQSPSSLAVSVGEKVTMSCKSSQSLLYRSNQKNYLAWYQQKPGQSPKLLIYWASTRESGVPDRFTGSGSGTDFTLTISSVKAEDLAVYYCQQYYNYPRTFGGGTKVEIK
notes: also called murine 120
- Kd (human STEAP-1 [19]): 1.5 nM
- Kd (human STEAP-1 [20]): 17.5 nM
- Kd (human STEAP-1 [9]): 4.7 nM
- sites per cell (human STEAP-1 [9]): 301000 sites per cell
- binding result [11]: binds
- binding result (mouse STEAP-1 [21]): no binding

B7: 120 chimera (antibody, V domains shown)
VH: B6 VH
VL: B6 VL
notes: If that entry holds a murine constant part, only its variable part applies here; also called chimera 120; chimeric 120 IgG
- Kd (human STEAP-1 [19]): 0.9 nM
- Kd (human STEAP-1 [20]): 9.9 nM
- Kd (human STEAP-1 [9]): 4.9 nM
- sites per cell (human STEAP-1 [9]): 253000 sites per cell
- binding result [11]: binds
- binding result (mouse STEAP-1 [22]): no binding
